In the supplement of paper PMC12042874 one finds amyloid nucleation score data, which are given here for 140 substances.

± gives the uncertainty stated by the source.

The nature of this series: amyloid nucleation score (Sup35N fusion, yeast selection) (log enrichment); library NNK2; higher = more nucleation; inactive = no reads after selection. Put shortly:
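Random libraries were run with three technical output replicates. In each, psi-negative yeast expressing Sup35N fused to peptides of 20 random codons were induced 24 hours with 100 μM copper sulfate and grown 7 days at 30°C on medium lacking adenine and uracil, and input and output plasmid inserts were Illumina-sequenced. The nucleation score is the DiMSum log enrichment of output over input reads, centred on the mode score of non-aggregating sequences, and sequences under 100 input reads were excluded.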
Substance GPWAAVVRGFCPKGDKRSCG registered an amyloid nucleation score of -0.304 ± 0.41.

Turning to NTYLSMEFLLTP, the amyloid nucleation score entry was “inactive”. In the case of FPGLDGNQMFRLC, the amyloid nucleation score turned out to be 0.42 ± 0.66. In the case of SNFSMVCAVCV it was 0.454 ± 0.34; in that of LSVCLHHHNIAWDRCSGR, -0.469 ± 0.37. As for YSHATFSPASNSYQKG, the figure is 0.146 ± 0.56; as for CDSKVENIWVDLNEMYFFCN, 2.54 ± 0.17. In the case of SNWCGFSSTIKSESY it was “inactive”; in that of SCCEGISSVNNLFMRRRGIE, 0.201 ± 0.53; in that of LKNNNQETGIEFYIFREHRD, 4.22 ± 0.047. Consider SCNRRSSVVPWWWLTFRRWN, for which the amyloid nucleation score was -1.16 ± 1.1. As for KMHCGFDFEWVTTYNTTIVR, the figure is -0.369 ± 0.47; as for IYREVYAL, “inactive”; as for NLDGCTVIS, 0.774 ± 0.51. Turning to CVSADPFCPIEQFNVMILAL, the amyloid nucleation score was -0.663 ± 0.42. In the case of IVQSSTAKHEDQVFGKKV it was 1.24 ± 0.61; in that of FHLRWRFSSSSNNITRRRCR, 0.115 ± 1; in that of MTDLLTMVAYRLKGSRVSSM, 0.08 ± 0.37. In the case of CRCLPKKGFHVLTVSRFRAS it was “inactive”; in that of QFWVPTLEAWSWTSAFPYMP, -0.536 ± 1.1; in that of HTGLFWS, “inactive”. As for SLSYDWFASHLWTYDGW, the figure is -1.03 ± 0.34. With FYRGT, the amyloid nucleation score is -0.974 ± 0.55. In the case of GLNVLCSLAIKAKLDGRWRH it was 9.371 ± 0.072; in that of VFYLSFIFLLWLSGKYLGHW, 1.25 ± 0.1.

Turning to STQYPTMVERLS, the amyloid nucleation score turned out to be 1.75 ± 0.3.

Substance VMNHWCNVWSFPWTMVRTHQ had an amyloid nucleation score of 0.352 ± 0.31.

Substance ENLKCEPLGRVRLKDHVYVV registered an amyloid nucleation score of 0.228 ± 0.27. For YDGFDITYSYDLSVVFCVDR, the amyloid nucleation score came to 0.046 ± 0.44. As for TWIGYHFGI, the entry is “inactive”; as for VPIKGHNRHMMNYNSEKAGS, -1.13 ± 0.76.

For the substance FVRASGHTTCYSCQLSTPGP, the amyloid nucleation score was 1.34 ± 0.15. KIIISYGQCK yielded an amyloid nucleation score of 2.71 ± 0.2. In the case of IRVRGFPSSHRSV it was -0.901 ± 0.78; in that of FPNLFYFADYVLICNLMIKL, 4.585 ± 0.029; in that of SVVGQKVGGR, 0.487 ± 0.33.

Take MKNTVE: the amyloid nucleation score is -0.803 ± 1.

Consider TFLLAFFIFFLNG, for which the amyloid nucleation score was -0.306 ± 0.53.

HRTLFKGPSWLPKRRERAIL: the amyloid nucleation score was -0.097 ± 0.79. As for IVQLWIWGVVPPFSDISHAL, the figure is 7.866 ± 0.05; as for LMSQCT, -0.926 ± 0.64; as for SWFWVPGNQLLMTIEGFQWS, -0.281 ± 0.35. In the case of MIWNCTVFFLGDGAPLCGLC it was 8.5 ± 0.064; in that of VTVCC, 1.69 ± 0.2. Turning to YKLAFQSYIDGLLIL, the amyloid nucleation score result was “inactive”. As for YREACCCNSFACPGATDVGP, the figure is 9.188 ± 0.046; as for MIKHGYQWPCSLCT, 0.219 ± 0.46. In the case of LNQNPLFTN it was -0.11 ± 0.76.

Substance FGTKHFVICSL displayed an amyloid nucleation score of -0.989 ± 0.76. As for WDNWDPVAAP, the entry is “inactive”. In the case of ICWHV it was -0.277 ± 1.1; in that of HFRVYSWIQVK, 0.337 ± 0.49; in that of YLCVYIRLYFMPLRYWKKMC, -0.606 ± 0.44. Substance LMCTSAKSADMSH showed an amyloid nucleation score of 0.992 ± 0.6. In the case of GTRYLRVSFNCAVRV it was 1.22 ± 0.69. As for RLVSKEATCPR, the figure is -0.058 ± 0.54; as for IWGCKELLDVRTAQGVDGM, 3.87 ± 0.078; as for HKWCKYNDLFVIHMSGFGRG, 5.44 ± 0.087.

With CSLPCVTNWCRRRNMVSQPV, the amyloid nucleation score was -1.11 ± 1.1. With AAMPLPF, the amyloid nucleation score result is “inactive”. In the case of SGYPRRIYWLVGKCLWYHRA it was 0.921 ± 0.48; in that of VVNCCGWMVPVGPSHW, 10.32 ± 0.035; in that of DVPLCLYCMYLSSFRVVIWM, 2.35 ± 0.1. As to FGYMCEAPHRVDFRLFELLQ, the amyloid nucleation score result is “inactive”. In the case of ADKCYGYASACVFSGSLVC it was 0.028 ± 0.56; in that of LAVVTCHCSSTCCSYLLNVG, 3.38 ± 0.06; in that of WHEWCEGCGRNCSWEVGQDR, 0.435 ± 0.23. In the case of FDYAQRWSQP it was 0.121 ± 0.49; in that of VERIKLFASAHYS, -0.203 ± 0.35. In the case of LGLTSHTVPKCRCVGLMLMV it was 0.438 ± 0.29. MVFRNNYSEVTTRLAGNGRR had an amyloid nucleation score of -0.074 ± 1.1.

Consider SPSLVTNFVENGFFGVDLLS, for which the amyloid nucleation score result is “inactive”.

The substance ILGDNRLKPVTLSRNVALYY yielded an amyloid nucleation score of -1.18 ± 0.78. Regarding LSTCCVKVVVCRDFIIVDKF, the amyloid nucleation score was determined as 6.57 ± 0.039.

As to FDGLIFSITRTLVY, the amyloid nucleation score was -1.42 ± 1.1.

In turn, VHLGRV displayed an amyloid nucleation score of -0.678 ± 0.48.

YDHDLINRKITSGHKVYFIG: the amyloid nucleation score is -0.586 ± 0.49. As for SIFPRTCSNSACLWISSRKL, the figure is 4.259 ± 0.042; as for FSSWAFLMSRLCYHDSESHL, 0.417 ± 0.16; as for PHDVFRWCVCAVPGSERSTG, 0.815 ± 0.25. In the case of TICVSSVRRTGKGSWVRDWA it was 0.356 ± 0.5; in that of CKRSWVSYMHW, -0.593 ± 1.1. In the case of ELSHSLSIKATVEGS it was 0.279 ± 0.56; in that of RFFCLWFSWKNLGFNVKRAV, 5.02 ± 0.082; in that of LNDGPEGTCWSPNGVNSLLH, -0.382 ± 0.76. AWLLTLPKLYSLEC showed an amyloid nucleation score of -0.434 ± 0.6. As for VVRVFLKGSSCGSLEAFDYV, the figure is 2.86 ± 0.19; as for DGFVVASISWGSNFLVFFIY, “inactive”. In the case of NLGGRFCAGFRRNHTCLGRN it was -0.458 ± 0.33; in that of FPFLDGVVLSKEFYNLR, -1 ± 1. As for VENLRNTIPKKEIGFSSVTG, the figure is -0.105 ± 0.3; as for SFLFMKSTIRFIEL, -1.34 ± 0.36.

Take VRWTTFRECWAGYGGYVIGR: the amyloid nucleation score was determined as 1.19 ± 0.17.

As for HYVIVNIICCSDVGVLSRDR, the amyloid nucleation score came out at 9.454 ± 0.069.

Take TDASYNRMVTYFKWIISGYR: the amyloid nucleation score is -1.39 ± 0.54. In the case of LVQMISKILYNEE it was “inactive”; in that of LVSFRKPILTSQ, 0.164 ± 0.8; in that of GNGRHC, -0.021 ± 0.21. In the case of FFTMCVAMYVVRSAYGMHN it was -0.03 ± 0.44; in that of DAVRQGTL, 0.102 ± 1.1. In the case of CLWSTN it was 0.801 ± 0.58.

On to NKSSLRVCRPLSWNMSMVSN, for which the amyloid nucleation score worked out at 0.593 ± 0.44.

PISFVCYMEKVLDYANWPCR registered an amyloid nucleation score of 8.458 ± 0.066.

For the substance LGKFFNNPLLFGFY, the amyloid nucleation score result was “inactive”. In the case of GYKHLIRVQWSKTYSSTGFC it was -0.356 ± 1.1; in that of YYNSATPTDDGWWKISG, -0.574 ± 1.

As for ICPFKSWFFYSLPYAFVRFT, the amyloid nucleation score entry was “inactive”. As for ISSYEVELDALIVWGDTSSG, the figure is 0.006 ± 0.49; as for SGWWTKHRTMLKYYTLFAMG, -0.449 ± 0.44. As for GVIRILWDECRTSDYFGCGT, the figure is 0.047 ± 0.26; as for SGLLVSNKFWGICTNYFGQR, 6.684 ± 0.045. In the case of CKSFNSFSETPKYAKVVPRA it was 0.633 ± 0.56. Substance MVPKNFYFRRWLSWLRVRLL showed an amyloid nucleation score of 0.144 ± 0.52. In the case of LNISFSDSLSRLVV it was -0.935 ± 1.1. VYTRMKITVGFKYLYN registered an amyloid nucleation score of 1.24 ± 0.45. As for LVAALRV, the figure is -0.452 ± 0.39. Turning to VSYPVCMGKWHGSTRILNRH, the amyloid nucleation score amounted to 0.669 ± 0.27. On to SCMSFVLKFPQTLSVWVCWG, for which the amyloid nucleation score stood at 4.97 ± 0.072. In the case of SFDVYVEARLMDSVTGLDRI it was 0.437 ± 0.32; in that of FPMFSYTSMHYGH, 1.83 ± 0.17; in that of NLSNELSCI, “inactive”. In the case of LMPDSCSNPRWKTEVLTIRG it was -0.199 ± 1.1. In the case of LGVMRIVHVGLWSAR it was -0.249 ± 0.55. As to WWDRVRLFRYRLCGSKSLMS, the amyloid nucleation score is 0.429 ± 0.38. In the case of YFLVKFSSNTFIVWTHRYFQ it was 0.057 ± 1.1; in that of FNVAGRRRISGTNLY, -0.159 ± 1.1. In turn, DKRLCLMVCNLLVYYMPF gave an amyloid nucleation score of -0.952 ± 0.63. Take CFAGLFLLSSEFFYRLTSRR: the amyloid nucleation score was 1.58 ± 0.12.

Consider RNGVLTEARHLSVSGEERRV, for which the amyloid nucleation score is -0.316 ± 0.8.

The substance CLNWKYKNRELQVFNDSRVV returned an amyloid nucleation score of -2.77 ± 0.75. In the case of PSRVSVSYM it was 2.69 ± 0.076; in that of VMGCFSIGGLGMGVPMVYSR, 0.651 ± 0.44.

In the case of HDGCGPCSHWTGSQFTFRSS, the amyloid nucleation score was determined as 2.2 ± 0.11. For FRHYSYRRWQSLHKIVGICH, the amyloid nucleation score entry is “inactive”. As for DYRMCI, the figure is 0.926 ± 0.48; as for FLWKRVVLSREEMAMDTTGS, 5.47 ± 0.066; as for IPALN, -0.963 ± 0.55. In the case of ILVHVSFDNRFN it was 6.06 ± 0.077.

Consider AYCCINLHYNLKVS, for which the amyloid nucleation score worked out at 0.665 ± 0.65.

Take DTLFNCFSCIVKLMSYIKSL: the amyloid nucleation score entry was “inactive”.
